Source: patent US20110091971A1, “Differentiation of Pluripotent Stem Cells” (priority 2008, published 2011)

Test system: H1 or H9 human embryonic stem cells
Test: Activin A bioassay: differentiation of human embryonic stem cells to definitive endoderm, cell number and SOX17 intensity by high content analysis (96-well, four days);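 on Cell Number average: Raw total cell count per well from high content imaging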;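 on Sox 17 Intensity average: total fluorescence of the cell multiplied by cell area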
Format: cell-based
Settings: for Sox 17 Intensity % of control: control = R&D Sys Activin A 100 ng/ml on same plate
Outline: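 Read-out was cell count and integrated SOX17 immunofluorescence by high-content imaging, with each well divided by the mean of the 100 ng/ml activin A control. Over the four-day culture, test samples were given in DMEM:F12 with 0.5% FCS plus 20 ng/ml Wnt3a for the first two days and in 2% FCS alone for the last two. Cells were H1 or H9 hESC clusters grown on Matrigel.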

[1] = supernatant concentration 10x, assay dilution 1:20, assay plates #007, #009, #010
[2] = supernatant concentration 10x, assay dilution 1:20
[3] = supernatant concentration 50x, assay dilution 1:20, assay plates #008, #009
[4] = supernatant concentration 50x, assay dilution 1:20
[5] = supernatant concentration 1x, assay dilution 1:20
[6] = supernatant concentration 10x, assay dilution 1:40

Molecule	Cell Number average [1]	Sox 17 Intensity average [1]	Sox 17 Intensity % of control [2] [%]	Cell Number average [3]	Sox 17 Intensity average [3]	Sox 17 Intensity % of control [4] [%]	also measured
ACTN60: activin A variant peptide, SEQ ID 61 (protein) GLECDGKVNICCKKQSFGQTKDIGWNDWIIAPSGYHGGGCSGECPSHIAGTSGSSLSFHSTVINHYRMRGHSPWANLKSCCAPTKLRPMSMLYYDDGQNIIKKDIQNMVVEECGCV	8303	5.90E+05	2.4	10603	3.73E+06	15.0	–
ACTN74: activin A variant peptide, SEQ ID 75 (protein) GLECDGKVNICCKKQSFGRAKDIGWNDWIIAPSGYHGGGCTGECPSHIAGTSGSSLSFHSTVINHYRMRGHSPFANLKSCCSPTKLRPMSMLYYDDGQNIIKKDIQGMVVEECGCT	15049	3.30E+06	13.2	16143	1.03E+07	41.3	–
ACTN65: activin A variant peptide, SEQ ID 66 (protein) GLECDGKVNICCKKQSFGQTKDIGWNDWIIAPSGYHGGSCSGECPSHIAGTSGSSLSFHSTVINHYRMRGHSPFANLKSCCSPTKLRPMSMLYYDDGQNIIKKDIQGMKVEECGCT	22058	3.23E+07	22.9	–	–	–	–
ACTN50: activin A variant peptide, SEQ ID 51 (protein) GLECDGKVNICCKKQLFGRTKDIGWNDWIIAPSGYHGGGCSGECPSHIAGTSGSSLSFHSTVINHYRMRGHSPVANLKSCCSPTKLRPMSMLYYDDGQNIIKKDIQNMKVEECGCT	22171	1.72E+07	12.2	–	–	–	–
ACTN61: activin A variant peptide, SEQ ID 62 (protein) GLECDGKVNICCKKQLFGQTKDIGWNDWIIAPSGYHGGSCTGECPSHIAGTSGSSLSFHSTVINHYRMRGHSPNANLKSCCSPTKLRPMSMLYYDDGQNIIKKDIQNMKVEECGCT	15268	1.70E+06	6.8	15256	7.18E+06	28.8	–
ACTN56: activin A variant peptide, SEQ ID 57 (protein) GLECDGKVNICCKKQSFGQAKDIGWNDWIIAPSGYHGGSCTGECPSHIAGTSGSSLSFHSTVINHYRMRGHSPFANLKSCCAPTKLRPMSMLYYDDGQNIIKKDIQNMVVEECGCV	23413	2.79E+07	19.8	–	–	–	–
ACTN78: activin A variant peptide, SEQ ID 79 (protein) GLECDGKVNICCKKQLFGQAKDIGWNDWIIAPSGYHGGGCSGECPSHIAGTSGSSLSFHSTVINHYRMRGHSPVANLKSCCSPTKLRPMSMLYYDDGQNIIKKDIQNMVVEECGCT	12585	1.11E+06	4.4	16301	5.64E+06	22.6	–
ACTN51: activin A variant peptide, SEQ ID 52 (protein) GLECDGKVNICCKKQSFGQTKDIGWNDWIIAPSGYHGGGCSGECPSHIAGTSGSSLSFHSTVINHYRMRGHSPFANLKSCCSPTKLRPMSMLYYDDGQNIIKKDIQRMVVEECGCT	21780	1.85E+07	13.1	–	–	–	–
ACTN72: activin A variant peptide, SEQ ID 73 (protein) GLECDGKVNICCKKQLFGQAKDIGWNDWIIAPSGYHGGSCTGECPSHIAGTSGSSLSFHSTVINHYRMRGHSPNANLKSCCSPTKLRPMSMLYYDDGQNIIKKDIQNMVVEECGCT	14638	3.44E+06	13.8	16810	6.51E+06	26.1	–
ACTN42: activin A variant peptide, SEQ ID 43 (protein) GLECDGKVNYCCKKQDFVSFKDIGWNDWIIAPSGYHANKCSGKCPSHIAGTSGSSLSFHSTVINHYRMRGHSPFSDMGSCCIPTKLRPMSMLYYDDGQNIIKKDIQNMIVEECGCS	9937	3.45E+06	13.8	7805	7.53E+06	30.2	–
ACTN46: activin A variant peptide, SEQ ID 47 (protein) GLECDGKVNLCCKKQNFVSFKDIGWNDWIIAPSGYHANECGGLCPSHIAGTSGSSLSFHSTVINHYRMRGHSPHANRGACCIPTKLRPMSMLYYDDGQNIIKKDIQNMIVEECGCS	20757	1.99E+07	14.1	–	–	–	–
ACTN49: activin A variant peptide, SEQ ID 50 (protein) GLECDGKVNLCCKKQDFVSFKDIGWNDWIIAPSGYHANRCDGLCPSHIAGTSGSSLSFHSTVINHYRMRGHSPFSDMGSCCVPTKLRPMSMLYYDDGQNIIKKDIQNMIVEECGCS	10076	1.60E+07	11.3	–	–	–	–
ACTN36: activin A variant peptide, SEQ ID 37 (protein) GLECDGKVNLCCKKQDFVSFKDIGWNDWIIAPSGYHANRCSGKCPSHIAGTSGSSLSFHSTVINHYRMRGHSPFANMGACCVPTKLRPMSMLYYDDGQNIIKKDIQNMIVEECGCS	24664	2.60E+07	18.4	–	–	–	–
ACTN13: activin A variant peptide, SEQ ID 14 (protein) GLECDGKVNLCCKKQDFVSFKDIGWNDWIIAPSGYHANKCSGKCPSHIAGTSGSSLSFHSTVINHYRMRGHSPFSDMGSCCIPTKLRPMSMLYYDDGQNIIKKDIQNMIVEECGCS	19861	2.78E+07	19.7	–	–	–	–
ACTN15: activin A variant peptide, SEQ ID 16 (protein) GLECDGKVNLCCKKQDFVSFKDIGWNDWIIAPSGYHANRCSGLCPSHIAGTSGSSLSFHSTVINHYRMRGHSPFSNMGSCCIPTKLRPMSMLYYDDGQNIIKKDIQNMIVEECGCS	22700	2.89E+07	20.5	–	–	–	–
ACTN40: activin A variant peptide, SEQ ID 41 (protein) GLECDGKVNLCCKKQLFVSFKDIGWNDWIIAPSGYHANHCAGLCPSHIAGTSGSSLSFHSTVINHYRMRGHSPFSNMGSCCVPTKLRPMSMLYYDDGQNIIKKDIQNMIVEECGCS	11321	1.21E+08	85.6	–	–	–	–
ACTN5: activin A variant peptide, SEQ ID 6 (protein) GLECDGKVNYCCKKQNFVSFKDIGWNDWIIAPSGYHANECSGKCPSHIAGTSGSSLSFHSTVINHYRMRGHSPFSNLGACCIPTKLRPMSMLYYDDGQNIIKKDIQNMIVEECGCS	–	–	5.6	–	–	–	Cell Number average [5]: 1261; Sox 17 Intensity average [5]: 1.111E+07; Sox 17 Intensity % of control [5]: 6.0%; Cell Number average [2]: 1396; Sox 17 Intensity average [2]: 1.031E+07; Cell Number average [6]: 1382; Sox 17 Intensity average [6]: 1.311E+07; Sox 17 Intensity % of control [6]: 7.1%
ACTN6: activin A variant peptide, SEQ ID 7 (protein, Sytnthetic Construct) GLECDGKVNLCCKKQWFVSFKDIGWNDWIIAPSGYHANRCSGKCPSHIAGTSGSSLSFHSTVINHYRMRGHSPFADMGACCIPTKLRPMSMLYYDDGQNIIKKDIQNMIVEECGCS	–	–	12.4	–	–	–	Cell Number average [5]: 939; Sox 17 Intensity average [5]: 1.234E+07; Sox 17 Intensity % of control [5]: 6.7%; Cell Number average [2]: 2359; Sox 17 Intensity average [2]: 2.272E+07; Cell Number average [6]: 1790; Sox 17 Intensity average [6]: 1.426E+07; Sox 17 Intensity % of control [6]: 7.8%
